Consider one protein from publication doi:10.1101/2022.07.04.498665 (bioRxiv, 2022).

Data set [1] concerns the molecule itself. The experiment in a line: SEC. For orientation: In gel filtration, larger molecules generally elute earlier.
Data set [2] deals with the molecule itself. As to the kind of experiment: SAXS.

Several values for one entry are separate records, joined by “and”; a condition that tells them apart may be missing. Equal values may be shown once.

B1: Mu8.1 (natural protein)
chain: GENSDNLTHCRLFEFRLCLLECMSLTLDHCYARCTTVITQIHGSDTNRFDCTIFKTCYYRCYVLGKTEDHCWKGTATSVTGDVGDLEFC
Consider B1, for which the stoichiometry N (as a rule, a count of units in the complex or per binding partner) is 2 in data set [1]; 4 and 6 in data set [2].
